Columns and labels:
cynomolgus monkey FcRn = target: T1, cynomolgus monkey FcRn (cynomolgus monkey, UniProt Q8SPV9 24-297; Q8SPW0 21-119); assay: Bio-Layer Interferometry, pH 6.0; tested as ~82%/~18% mixture
T1 construct: also called neonatal Fc receptor

mouse FcRn = target: T2, mouse FcRn (mouse, UniProt Q61559 22-297; P01887 21-119); assay: as above
T2 construct: also called neonatal Fc receptor
T2 sequence (looked up): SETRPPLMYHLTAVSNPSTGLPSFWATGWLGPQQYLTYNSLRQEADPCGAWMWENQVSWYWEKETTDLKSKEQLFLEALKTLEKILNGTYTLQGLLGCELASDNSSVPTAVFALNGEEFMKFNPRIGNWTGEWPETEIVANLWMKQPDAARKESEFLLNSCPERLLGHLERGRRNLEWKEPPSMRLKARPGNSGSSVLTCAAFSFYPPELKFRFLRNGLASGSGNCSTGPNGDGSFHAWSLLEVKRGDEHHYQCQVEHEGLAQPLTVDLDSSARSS
T2 sequence (b2m, looked up): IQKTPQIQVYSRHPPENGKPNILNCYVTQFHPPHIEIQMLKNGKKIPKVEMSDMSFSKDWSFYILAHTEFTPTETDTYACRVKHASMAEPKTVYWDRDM

human FcRn = target: T3, human FcRn (human, UniProt P55899 24-297; P61769 21-119); assay: as above
T3 construct: also called neonatal Fc receptor

[1] = target: human complement component 1q (C1q) (human, UniProt P02745 23-245; P02746 28-253; P02747 29-245); assay: BLI; tested as XENP24306+XENP32803
[2] = target: T4, cynomolgus monkey CD122/CD132 on lymphocytes (NK cells and CD8+ T cells in cynomolgus monkey PBMCs) (cynomolgus monkey, UniProt Q38J85 27-551; A0A2K5VGJ6 23-369); assay: cell-based or functional assay
T4 sequence (looked up) 1: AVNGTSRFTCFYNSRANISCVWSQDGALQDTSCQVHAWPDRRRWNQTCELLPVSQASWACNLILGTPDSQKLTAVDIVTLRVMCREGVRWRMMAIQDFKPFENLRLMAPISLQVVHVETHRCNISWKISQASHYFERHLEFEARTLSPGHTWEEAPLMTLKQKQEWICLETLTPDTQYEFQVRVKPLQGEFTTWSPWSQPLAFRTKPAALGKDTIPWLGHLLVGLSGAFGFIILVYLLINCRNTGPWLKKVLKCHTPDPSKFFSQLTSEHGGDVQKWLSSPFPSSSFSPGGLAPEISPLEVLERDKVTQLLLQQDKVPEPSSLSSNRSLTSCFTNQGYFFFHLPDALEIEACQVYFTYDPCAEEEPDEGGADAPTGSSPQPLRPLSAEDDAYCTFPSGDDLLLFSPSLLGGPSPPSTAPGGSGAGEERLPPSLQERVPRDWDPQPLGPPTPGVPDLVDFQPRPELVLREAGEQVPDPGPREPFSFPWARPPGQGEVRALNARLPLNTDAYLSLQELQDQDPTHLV
T4 sequence (looked up) 2: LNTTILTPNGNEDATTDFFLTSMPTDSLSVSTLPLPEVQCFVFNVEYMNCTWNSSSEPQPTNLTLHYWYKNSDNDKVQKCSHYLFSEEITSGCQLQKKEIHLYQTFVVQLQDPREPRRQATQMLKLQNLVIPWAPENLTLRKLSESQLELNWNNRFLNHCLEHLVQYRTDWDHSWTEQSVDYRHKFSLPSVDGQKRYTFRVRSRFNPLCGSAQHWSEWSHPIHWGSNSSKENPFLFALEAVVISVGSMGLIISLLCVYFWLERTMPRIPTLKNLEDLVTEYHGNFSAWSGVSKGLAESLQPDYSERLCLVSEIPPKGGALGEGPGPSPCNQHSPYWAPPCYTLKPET

[3] = target: T5, human CD122/CD132 on lymphocytes (NK cells and CD8+ T cells in human PBMCs) (human, UniProt P31785 23-369); assay: cell-based or functional assay
T5 sequence 1: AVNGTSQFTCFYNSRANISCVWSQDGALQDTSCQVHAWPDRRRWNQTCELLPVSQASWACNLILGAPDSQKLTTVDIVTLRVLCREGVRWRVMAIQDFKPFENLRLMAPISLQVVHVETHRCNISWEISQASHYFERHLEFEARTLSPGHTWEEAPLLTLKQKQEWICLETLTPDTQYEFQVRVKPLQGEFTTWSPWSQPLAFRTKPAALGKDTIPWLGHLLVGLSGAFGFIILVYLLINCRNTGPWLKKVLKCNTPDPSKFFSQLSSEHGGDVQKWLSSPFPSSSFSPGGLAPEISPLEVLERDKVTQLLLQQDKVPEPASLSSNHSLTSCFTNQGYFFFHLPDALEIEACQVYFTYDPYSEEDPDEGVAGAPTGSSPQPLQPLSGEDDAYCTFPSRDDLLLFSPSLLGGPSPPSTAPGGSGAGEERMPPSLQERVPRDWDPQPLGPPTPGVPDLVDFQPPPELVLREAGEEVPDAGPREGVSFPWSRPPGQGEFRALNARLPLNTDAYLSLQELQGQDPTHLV
T5 sequence 2: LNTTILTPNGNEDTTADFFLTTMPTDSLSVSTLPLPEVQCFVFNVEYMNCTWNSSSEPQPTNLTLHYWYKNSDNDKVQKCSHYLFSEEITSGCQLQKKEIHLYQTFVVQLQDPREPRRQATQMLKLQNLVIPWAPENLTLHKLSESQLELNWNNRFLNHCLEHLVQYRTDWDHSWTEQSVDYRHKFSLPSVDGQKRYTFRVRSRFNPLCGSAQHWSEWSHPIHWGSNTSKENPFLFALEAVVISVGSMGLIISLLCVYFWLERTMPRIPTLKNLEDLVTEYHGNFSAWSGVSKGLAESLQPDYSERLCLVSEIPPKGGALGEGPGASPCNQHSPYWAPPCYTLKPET

Sequence of human complement component 1q (C1q) (P02745 23-245 limits assumed, chain 1 of 3): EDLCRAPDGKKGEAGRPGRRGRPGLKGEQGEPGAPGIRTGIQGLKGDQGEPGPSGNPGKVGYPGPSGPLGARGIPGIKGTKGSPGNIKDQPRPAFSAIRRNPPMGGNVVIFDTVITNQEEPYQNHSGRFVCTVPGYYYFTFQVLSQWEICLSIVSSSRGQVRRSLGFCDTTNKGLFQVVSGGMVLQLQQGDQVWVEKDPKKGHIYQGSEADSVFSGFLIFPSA
Sequence of human complement component 1q (C1q) (P02746 28-253 limits assumed, chain 2 of 3): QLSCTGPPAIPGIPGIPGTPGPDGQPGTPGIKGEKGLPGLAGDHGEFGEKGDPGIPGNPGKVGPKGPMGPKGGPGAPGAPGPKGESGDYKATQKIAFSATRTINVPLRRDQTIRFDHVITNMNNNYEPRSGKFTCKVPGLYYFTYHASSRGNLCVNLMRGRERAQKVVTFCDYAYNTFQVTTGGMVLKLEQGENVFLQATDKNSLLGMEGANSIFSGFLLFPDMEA
Sequence of human complement component 1q (C1q) (P02747 29-245 limits assumed, chain 3 of 3): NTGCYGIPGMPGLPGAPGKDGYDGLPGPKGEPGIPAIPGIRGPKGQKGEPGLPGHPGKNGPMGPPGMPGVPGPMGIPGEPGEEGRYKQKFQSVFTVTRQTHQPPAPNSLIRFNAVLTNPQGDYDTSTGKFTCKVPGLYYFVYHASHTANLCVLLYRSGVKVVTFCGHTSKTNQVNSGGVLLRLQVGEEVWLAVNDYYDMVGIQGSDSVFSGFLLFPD
T3 sequence (P55899 24-297 limits assumed, chain 1 of 2): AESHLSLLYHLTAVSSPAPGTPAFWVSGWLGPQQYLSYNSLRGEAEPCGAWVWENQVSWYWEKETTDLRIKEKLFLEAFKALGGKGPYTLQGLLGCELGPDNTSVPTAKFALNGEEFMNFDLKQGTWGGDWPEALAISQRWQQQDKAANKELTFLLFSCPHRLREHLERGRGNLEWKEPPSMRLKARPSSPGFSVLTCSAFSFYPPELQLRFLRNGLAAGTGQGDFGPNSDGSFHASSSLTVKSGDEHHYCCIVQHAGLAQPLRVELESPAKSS
T3 sequence (P61769 21-119 limits assumed, chain 2 of 2): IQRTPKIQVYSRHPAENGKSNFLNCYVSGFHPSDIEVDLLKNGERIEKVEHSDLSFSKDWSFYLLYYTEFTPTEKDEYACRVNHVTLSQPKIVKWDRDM
T1 sequence (Q8SPV9 24-297 limits assumed, chain 1 of 2): as the sequence (P55899 24-297 limits assumed, chain 1 of 2) above, with N39D, E44Q, G99S, S189G, S190N, L217M, S269T counted along it
T1 sequence (Q8SPW0 21-119 limits assumed, chain 2 of 2): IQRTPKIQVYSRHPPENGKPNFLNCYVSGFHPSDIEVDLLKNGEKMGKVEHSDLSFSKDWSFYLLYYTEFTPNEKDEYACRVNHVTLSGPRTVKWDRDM

B1: XENP24306 (Fc fusion)
chain 1: NWVNVISDLKKIEDLIQSMHIDATLYTESNVHPSCKVTAMKCFLLELQVISLESGDASIHDTVQDLIILANNSLSSNGNVTESGCKECEELEEKNIKEFLQSFVHIVQMFINTSGGGGSEPKSSDKTHTCPPCPAPPVAGPSVFLFPPKPKDTLMISRTPEVTCVVVDVKHEDPEVKFNWYVDGVEVHNAKTKPREEEYNSTYRVVSVLTVLHQDWLNGKEYKCKVSNKALPAPIEKTISKAKGQPREPQVYTLPPSREEMTKNQVSLTCDVSGFYPSDIAVEWESDGQPENNYKTTPPVLDSDGSFFLYSKLTVDKSRWEQGDVFSCSVLHEALHSHYTQKSLSLSPGK
chain 2: ITCPPPMSVEHADIWVKSYSLYSRERYICNSGFKRKAGTSSLTECVLNKATNVAHWTTPSLKCIRGGGGSEPKSSDKTHTCPPCPAPPVAGPSVFLFPPKPKDTLMISRTPEVTCVVVDVKHEDPEVKFNWYVDGVEVHNAKTKPREEQYNSTYRVVSVLTVLHQDWLNGKEYKCKVSNKALPAPIEKTISKAKGQPREPQVYTLPPSREQMTKNQVKLTCLVKGFYPSDIAVEWESNGQPENNYKTTPPVLDSDGSFFLYSKLTVDKSRWQQGNVFSCSVLHEALHSHYTQKSLSLSPGK
notes: Never tested alone: every experiment used a combination of XENP24306 (~82%) and XENP32803 (~18%); Each result of the combination is written once for each of the two proteins; also called IL15/IL15Rα heterodimeric protein; XENP24306+XENP32803 (about 82% of the tested combination); copies: 1 + 1
binding result (cynomolgus monkey FcRn): binds | binding result (mouse FcRn): binds | binding result (human FcRn): binds | binding result [1]: no binding | EC50 of CD8+ T cell proliferation in cynomolgus monkey PBMCs [2]: 3.8 µg/mL | EC50 of NK-cell proliferation in cynomolgus monkey PBMCs [2]: 0.5 µg/mL | EC50 of human CD8+ T cell proliferation (Ki67+) in human PBMCs [3]: 12.7 µg/mL | EC50 of human NK-cell proliferation (Ki67+) in human PBMCs [3]: 1.2 µg/mL | potency on human CD8+ terminal effector T cells (Ki67 proliferation), fold lower than recombinant wild-type IL-15 [3]: ~900 fold | potency on human CD8+ terminal effector T cells (Ki67 proliferation), fold lower than wild-type IL-15/wild-type IL-15Rα heterodimer Fc fusion XENP22853 [3]: ~400 fold

B2: XENP32803 (Fc fusion)
chain 1: NWVNVISDLKKIEDLIQSMHIDATLYTESNVHPSCKVTAMKCFLLELQVISLESGDASIHDTVQDLIILANNSLSSNGNVTESGCKECEELEEKNIKEFLQSFVHIVQMFINTSGGGGSEPKSSDKTHTCPPCPAPPVAGPSVFLFPPKPKDTLMISRTPEVTCVVVDVKHEDPEVKFNWYVDGVEVHNAKTKPREEEYNSTYRVVSVLTVLHQDWLNGKEYKCKVSNKALPAPIEKTISKAKGQPREPQVYTLPPSREEMTKNQVSLTCDVSGFYPSDIAVEWESDGQPENNYKTTPPVLDSDGSFFLYSKLTVDKSRWEQGDVFSCSVLHEALHSHYTQKSLSLSPGK
chain 2: ITCPPPMSVEHADIWVKSYSLYSRERYICNSGFKRKAGTSSLTECVLNKATNVAHWTTPSLKCIRGGGGSEPKSSDKTHTCPPCPAPPVAGPSVFLFPPTPKDTLMISRTPEVTCVVVDVKHEDPEVKFNWYVDGVEVHNAKTKPREEQYNSTYRVVSVLTVLHQDWLNGKEYKCKVSNKALPAPIEKTISKAKGQPREPQVYTLPPSREQMTKNQVKLTCLVKGFYPSDIAVEWESNGQPENNYKTTPPVLDSDGSFFLYSKLTVDKSRWQQGNVFSCSVLHEALHSHYTQKSLSLSPGK
notes: Never tested alone: every experiment used a combination of XENP24306 (~82%) and XENP32803 (~18%); Each result of the combination is written once for each of the two proteins; also called IL15/IL15Rα heterodimeric protein; XENP24306+XENP32803 (about 18% of the tested combination); copies: 1 + 1
binding result (cynomolgus monkey FcRn): binds | binding result (mouse FcRn): binds | binding result (human FcRn): binds | binding result [1]: no binding | EC50 of CD8+ T cell proliferation in cynomolgus monkey PBMCs [2]: 3.8 µg/mL | EC50 of NK-cell proliferation in cynomolgus monkey PBMCs [2]: 0.5 µg/mL | EC50 of human CD8+ T cell proliferation (Ki67+) in human PBMCs [3]: 12.7 µg/mL | EC50 of human NK-cell proliferation (Ki67+) in human PBMCs [3]: 1.2 µg/mL | potency on human CD8+ terminal effector T cells (Ki67 proliferation), fold lower than recombinant wild-type IL-15 [3]: ~900 fold | potency on human CD8+ terminal effector T cells (Ki67 proliferation), fold lower than wild-type IL-15/wild-type IL-15Rα heterodimer Fc fusion XENP22853 [3]: ~400 fold

Reference: patent publication US20240366726A1 (Genentech, published 2024)
